# Data taken from US20140322218A1 (Amgen, published 2014).
# T1: caCDH19(1-43)::FLAG::caCDH19(44-87)::rhCDH19(89-114)::caCDH19(115-770), on 293T cells (rhesus macaque/dog chimera)
# T1 construct: also called rh EC1b (dog backbone)
# T1 chain: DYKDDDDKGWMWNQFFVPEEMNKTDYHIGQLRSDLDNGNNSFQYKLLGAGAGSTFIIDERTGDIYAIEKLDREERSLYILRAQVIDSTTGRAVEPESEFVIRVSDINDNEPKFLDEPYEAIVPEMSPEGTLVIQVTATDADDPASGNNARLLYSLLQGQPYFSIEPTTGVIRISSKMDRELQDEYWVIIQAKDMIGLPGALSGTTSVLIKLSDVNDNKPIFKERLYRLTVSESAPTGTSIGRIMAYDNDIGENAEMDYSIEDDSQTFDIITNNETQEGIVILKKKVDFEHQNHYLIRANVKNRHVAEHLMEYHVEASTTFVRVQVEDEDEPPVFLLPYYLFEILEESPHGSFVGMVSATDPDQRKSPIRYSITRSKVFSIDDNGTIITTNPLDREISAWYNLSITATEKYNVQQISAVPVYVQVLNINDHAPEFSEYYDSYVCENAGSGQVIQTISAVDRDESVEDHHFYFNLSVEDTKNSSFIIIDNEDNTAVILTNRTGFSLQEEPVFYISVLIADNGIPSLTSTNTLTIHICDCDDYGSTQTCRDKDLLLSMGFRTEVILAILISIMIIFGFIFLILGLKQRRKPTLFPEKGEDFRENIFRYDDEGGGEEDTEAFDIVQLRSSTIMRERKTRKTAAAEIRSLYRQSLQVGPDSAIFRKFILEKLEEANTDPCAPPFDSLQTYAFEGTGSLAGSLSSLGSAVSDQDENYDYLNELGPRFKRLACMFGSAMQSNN
# T2: muCDH19(1-43)::FLAG::muCDH19(44-770)::huCDH19(271), on 293T cells (mouse/human chimera)
# T2 construct: Entry holds leader (1-43), Flag tag and CDH19 part; leader left out; also called Hu EC3a
# T2 chain: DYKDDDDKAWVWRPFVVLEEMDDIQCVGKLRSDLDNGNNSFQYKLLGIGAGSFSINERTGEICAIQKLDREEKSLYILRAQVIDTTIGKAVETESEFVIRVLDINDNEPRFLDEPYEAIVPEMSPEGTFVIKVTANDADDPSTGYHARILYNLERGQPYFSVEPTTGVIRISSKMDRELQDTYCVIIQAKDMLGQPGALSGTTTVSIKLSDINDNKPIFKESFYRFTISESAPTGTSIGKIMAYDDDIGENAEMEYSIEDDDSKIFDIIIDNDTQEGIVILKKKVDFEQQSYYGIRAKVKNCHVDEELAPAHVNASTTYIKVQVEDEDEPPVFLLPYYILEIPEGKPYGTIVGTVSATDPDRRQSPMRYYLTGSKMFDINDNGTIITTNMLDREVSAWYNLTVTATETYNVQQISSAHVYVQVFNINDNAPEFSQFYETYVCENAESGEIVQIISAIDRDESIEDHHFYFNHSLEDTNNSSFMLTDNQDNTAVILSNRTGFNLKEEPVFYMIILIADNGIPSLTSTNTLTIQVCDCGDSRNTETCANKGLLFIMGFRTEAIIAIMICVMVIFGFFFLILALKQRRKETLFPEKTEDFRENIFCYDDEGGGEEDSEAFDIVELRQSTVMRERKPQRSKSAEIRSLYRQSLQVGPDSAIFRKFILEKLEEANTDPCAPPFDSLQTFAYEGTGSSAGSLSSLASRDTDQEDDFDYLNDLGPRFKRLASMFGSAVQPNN
# T3: (1-43)::FLAG::muCDH19(44-323)::raCDH19(324-327)::muCDH19(328-770), on 293T cells (mouse/rat chimera)
# T3 construct: Entry holds leader (1-43), Flag tag and CDH19 part; leader left out; also called Ra EC3c
# T3 chain: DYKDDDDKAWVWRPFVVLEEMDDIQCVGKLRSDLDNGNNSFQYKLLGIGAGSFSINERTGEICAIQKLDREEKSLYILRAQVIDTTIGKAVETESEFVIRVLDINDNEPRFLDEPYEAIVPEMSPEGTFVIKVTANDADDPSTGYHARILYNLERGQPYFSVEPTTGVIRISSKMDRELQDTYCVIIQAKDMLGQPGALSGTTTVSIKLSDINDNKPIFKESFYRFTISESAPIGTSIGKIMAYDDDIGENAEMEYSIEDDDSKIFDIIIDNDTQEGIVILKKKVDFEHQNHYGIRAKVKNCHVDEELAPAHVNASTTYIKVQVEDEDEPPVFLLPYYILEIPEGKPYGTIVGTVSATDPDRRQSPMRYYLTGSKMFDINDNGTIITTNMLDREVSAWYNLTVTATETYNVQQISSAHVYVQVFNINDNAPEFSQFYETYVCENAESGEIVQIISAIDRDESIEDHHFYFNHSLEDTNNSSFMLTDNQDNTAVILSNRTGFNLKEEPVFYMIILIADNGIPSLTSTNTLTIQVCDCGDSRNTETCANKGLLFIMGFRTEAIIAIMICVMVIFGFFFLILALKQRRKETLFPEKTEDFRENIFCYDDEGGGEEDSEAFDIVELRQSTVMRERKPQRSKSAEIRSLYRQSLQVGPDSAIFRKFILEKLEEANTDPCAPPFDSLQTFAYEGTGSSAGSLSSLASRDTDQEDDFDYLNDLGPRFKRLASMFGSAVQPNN
# Tests used:
# [1] = molecular target: T1, caCDH19(1-43)::FLAG::caCDH19(44-87)::rhC …; experiment: FACS, transfected 293T
# Experimental: The following binding assay was completed in presence of 2 mM CaCl2. […] Cells were then washed one time and the amount of cell associated Alexa647-labelled Ab was quantitated by flow cytometry. The experiments included mock transfected controls.
# [2] = molecular target: T4, Human Cadherin-19 (human, UniProt Q9H159 44-772); experiment: FACS, endogenous CDH19 on CHL-1/Colo699
# T4 construct: Residues 1-43 are named as the native leader in the construct designations and are left out; also called human CDH19; huCDH19
# Experimental: (§1) FACS binding assays were performed to evaluate the binding of the anti-Cadherin-19 receptor specific antibodies to endogenous Cadherin-19 receptor expressed on the CHL-1 tumor cell lines.
# (§2) FACs assays were performed by incubating hybridoma supernatants with 10,000 to 25,000 cells in PBS/2% Fetal bovine serum/2 mM Calcium Chloride at 4° C. for one hour followed by two washes with PBS/2% Fetal bovine serum/2 mM Calcium Chloride. Cells were then treated with florochrome-labeled secondary antibodies at 4° C. followed by one wash. The cells were resuspended in 50 μl of PBS/2% FBS and antibody binding was analyzed using a FACSCalibur™ instrument.
# [3] = molecular target: T4, Human Cadherin-19; experiment: FACS, endogenous and recombinant human CDH19
# Experimental: as §1, §2
# [4] = molecular target: T5, muCDH19(44-247)::huCDH19(250-364)::muCDH19(363-770), Flag-tagged, on 293T cells (human/mouse chimera); experiment: FACS, transfected 293T
# T5 construct: also called Hu EC3; C137911
# Text: (§3) The experiment included assaying the anti-CDH19 antibodies against mouse Cadherin19 to determine suitability for binning on these human/mouse chimeras.
# [5] = molecular target: T6, muCDH19(44-139)::huCDH19(142-364)::muCDH19(363-770), Flag-tagged, on 293T cells (human/mouse chimera); experiment: FACS, transfected 293T
# T6 construct: also called Hu EC2-3; C137847
# Text: as §3
# [6] = molecular target: T2, muCDH19(1-43)::FLAG::muCDH19(44-770)::hu …; experiment: FACS, transfected 293T
# [7] = molecular target: T3, (1-43)::FLAG::muCDH19(44-323)::raCDH19(3 …); experiment: FACS, transfected 293T
Binder,binding result [1],binding result [2],binding result [3],binding result [4],binding result [5],binding result [6],binding result [7]
"hu anti-<huCDH19> 4A9 VH::huIgG1z / 4A9 VL::huLLC-C1 (Ab ID 13589) (antibody, V domains shown, Recombinant fully human IgG1) VH: QVQLQESGPGLVKPSETLSLTCTVSGGSISGYYWSWIRQPPGKGLEWFAYFSYSGSTNYNPSLKSRVTLSVDTSKNQFSLKLSSVTAADTAVYYCARNWAFHFDFWGQGTLVTVSS VL: QSVLTQPPSVSGAPGQRVTISCTGSSSNIGTGYAVHWYQQFPGTAPKLLIYGNNNRPSGVPDRFSGSKSGTSASLAITGLQAEDEADYYCQSYDSRLSGWVFGGGTKLTVLG",no binding (tested: 5 ug/ml),binds,,,,,
"anti-CDH19 antibody 2G6 (Ab ID 13588) (antibody, human IgG1, lambda, V domains shown) VH: QVQLVESGGGVVQPGRSLRLSCAASGFTFSSYGMHWVRQAPGKGLEWVAFIWYDGSNKYYADSVKDRFTISRDNSKNTLYLQMKSLRAEDTAVYYCARRAGIIGTIGYYYGMDVWGQGTTVTVSS VL: SYELTQPPSVSVSPGQTASITCSGDRLGEKYTCWYQQRPGQSPLLVIYQDTKRPSGIPERFSGSNSGNTATLTISGTQAMDEADYYCQAWDSSTVVFGGGTKLTVLG",,,binds,binds,binds,binds,binds
"hu anti-<huCDH19> 26D1.1 VH::huIgG1z / 26D1.1 VL::huLLC-C2 (Ab ID 13882) (antibody, V domains shown) VH: QVQLVQSGAEVKKPGASVKVSCKASRYTFTSYYMSWVRQAPGQGLEWMGIIHPSGGDTTYAQKFQGRVTMTGDTSTSTVYMELSSLRSEDTAVYYCARGGIKLWLHFDYWGQGTLVTVSS VL: not shown",binds,binds,,,,,
"hu anti-<huCDH19> 4B10 VH::huIgG1z / 4B10 VL::huKLC (Ab ID 13590) (antibody, V domains shown) VH: QVQLVESGGGVVQPGRSLRLSCAASGFTFSSYDMHWVRQAPGKGLEWVAVISYDGTNEYYADSVKGRFTISRDTSKNTLYLQMNSLRAEDTAVYYCARERYFDWSFDYWGQGTLVSVSS VL: EIVLTQSPGTLSLSPGERATLSCRASQSVSNTYLAWYHQRPGQAPRLLIYGASSRATGIPDRFSGSGSGTDFALTISSLEPEDFAVYYCQQYSNSWTFGQGTKVEIKR",,,binds,binds,binds,no binding (tested: 5 ug/ml),binds
